Experimental data reported in US9005614B2, “PRLR-specific antibody and uses thereof” (Novartis AG, priority 2006, dated 2015).
Read-outs that look alike come from different tables or passages of the source.

B1: he.06.275-1: HUMAN-ENGINEERED antibody from XHA.06.275; variable regions SEQ ID NO: 91 and SEQ ID NO: 93 by order of listing (antibody, V domains shown)
VH: DVQLQESGPGLVKPSQTLSLTCTVTGYSITSDYAWNWIRQFPGKKLEWMGYISYSGSTSYNPSLKSRITISRDTSKNQFSLQLNSVTAADTATYFCARDYGYVFDYWGQGTTLTVSS
VL: DVQITQSPSSLSASPGDRITLTCRASKNIYKYLAWYQEKPGKTNNLLIYSGSTLHSGIPSRFSGSGSGTDFTLTISSLQPEDFAMYYCQQHNDYPYTFGQGTKLEIK
B2: he.06.275-3: HUMAN-ENGINEERED antibody from XHA.06.275; variable regions SEQ ID NO: 92 and SEQ ID NO: 93 by order of listing (antibody, V domains shown)
VH: DVQLQESGPGLVKPSQTLSLTCTVTGYSITSDYAWNWIRQFPGKKLEWMGYISYSGSTSYNPSLKSRITISRDTSKNQFSLQLNSVTAADTATYFCARDYGYVFDYWGQGTTLTVSS
VL: DVQITQSPSSLSASPGDRITLTCRASKNIYKYLAWYQEKPGKANKLLIYSGSTLHSGIPSRFSGSGSGTDFTLTISSLQPEDFAMYYCQQHNDYPYTFGQGTKLEIK
B3: he.06.275-2: HUMAN-ENGINEERED antibody from XHA.06.275; variable regions SEQ ID NO: 91 and SEQ ID NO: 94 by order of listing (antibody, V domains shown)
VH: QVQLQESGPGLVKPSQTLSLTCTVSGYSITSDYAWNWIRQFPGKGLEWMGYISYSGSTSYNPSLKSRITISRDTSKNQFSLQLNSVTAADTAVYFCARDYGYVFDYWGQGTTLTVSS
VL: DVQITQSPSSLSASPGDRITLTCRASKNIYKYLAWYQEKPGKTNNLLIYSGSTLHSGIPSRFSGSGSGTDFTLTISSLQPEDFAMYYCQQHNDYPYTFGQGTKLEIK
B4: he.06.642-1: HUMAN-ENGINEERED antibody from XHA.06.642; variable regions SEQ ID NO: 88 and SEQ ID NO: 89 by order of listing (antibody, V domains shown)
VH: EVQLVESGGGLVQPGGSLRLSCAVSGFTFSSYGMSWVRQAPGKRLEWVATVSSGGTYTYYPDSVKGRFTISRDNSKNTLYLQMNSLRAEDTAMYYCARHRGNYYATYYYAMDYWGQGTLVTVSS
VL: DIVLTQSPDSLAVSLGERATINCKASKSVSTSGYTYMHWYQQKPGQPPKLLIYLASNRESGVPDRFSGSGSGTDFTLTISPVQAEDVATYYCQHSGELPPSFGQGTKLEIK

How the values were obtained:
BaF3/PRLR cells = assay: In vitro combination of anti-PRLR mAbs and chemotherapeutics, cell survival (CellTiter Glo); format: cell-based; settings: 5 days
Protocol: Cell survival was determined by CellTiter Glo analysis and is reported aS RLU (y-axis).
Due to the possibility that a potential anti-PRLR therapeutic antibody may be administered in conjunction with cytotoxic drug regimens in the clinic, the effects of such combination therapies on cell survival in culture was investigated. […] An array of clinically-relevant and mechanistically diverse cytotoxic agents were utilized in this assay: Doxorubicin (an anthracycline Topo II inhibitor), Taxol (a microtubule stabilizing agent), Fludarabine (an anti-metabolite), and Cisplatin (a platinum-based DNA cross-linking drug).

cynomolgus PRLR ECD = biological target: T1, cynomolgus PRLR ECD (Macaca fascicularis, UniProt A0A2K5WXK1); assay: Biacore kinetic titration, antibody captured on Protein A/G; format: binding; settings: Table 9, Cyno PRLR ECD; unit not given
T1 construct: antibodies against human and cynomolgus PRLR ECD
T1 sequence (A0A2K5WXK1 25-234): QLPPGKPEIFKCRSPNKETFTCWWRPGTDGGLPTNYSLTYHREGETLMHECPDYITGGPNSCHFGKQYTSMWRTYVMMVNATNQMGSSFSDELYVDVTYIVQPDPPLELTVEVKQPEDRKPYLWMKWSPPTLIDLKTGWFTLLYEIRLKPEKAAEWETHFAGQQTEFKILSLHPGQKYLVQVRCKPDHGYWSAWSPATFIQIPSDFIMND
Protocol: (§1) Affinity of the chimerized and HUMAN ENGINEERED™ antibodies determined by Biacore analysis. Briefly, a CM5 sensor chip (Biacore) immobilized with Protein A/G (Pierce) via NHS/EDC was used to capture approximately 600 RU of antibody on the chip surface. Five concentrations of PRLR ECD beginning at 5 ug/mL (185 nM) and serially diluted at 5× dilution to 0.3 nM were injected from lowest to highest concentration in the kinetic titration injection mode, and 15 minutes of dissociation data was collected. The experiments were double-referenced, i.e. an adjacent flow cell response was subtracted automatically, and the response from a buffer injection experiment was subtracted from the experimental data set. Kinetic and derived parameters (ka, kd and KD) were determined by fitting to a 1:1 Langmuir model using BiaEval software customized to the kinetic titration injection mode. Affinity measurements of both chimeric and all HUMAN ENGINEERED™ antibodies against human and cynomolgus PRLR ECD are summarized in Table 9 and Table 10.

human PRLR ECD = biological target: T2, human PRLR ECD (Homo sapiens, UniProt P16471); assay: as above; format: binding; settings: Table 9, Human PRLR ECD; unit not given
T2 construct: His6 (C); made in house; host or cells: Tn5 insect cells, baculovirus
T2 sequence (P16471 25-234): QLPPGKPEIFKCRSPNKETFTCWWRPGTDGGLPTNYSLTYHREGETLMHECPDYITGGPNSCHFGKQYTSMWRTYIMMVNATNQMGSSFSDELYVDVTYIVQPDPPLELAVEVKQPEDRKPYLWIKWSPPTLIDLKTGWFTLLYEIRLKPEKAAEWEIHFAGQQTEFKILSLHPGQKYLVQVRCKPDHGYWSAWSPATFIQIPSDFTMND
Protocol: as §1

[1] = system: PRL-induced phospho-PRLR and phospho-Stat5; assay: PRL-induced PRLR and STAT5 phosphorylation in T47D cells by Western blot; format: cell-based, human
Protocol: Cells were pre-treated with 1 ug/ml mAb prior to 30 min stimulation with 50 ng/ml PRL. Lysates were analyzed for the presence of phospho-PRLR using antibodies specific for phosphotyrosine residues 546 and 611 of the PRLR.
T47D cells were incubated with 1 or 10 ug/ml mAb, then treated with or without PRL (50 ng/ml) for an additional 30 min.
The ability of selected antibodies to inhibit PRL-induced phosphorylation of STAT5 and AKT was determined as follows. Cells were seeded overnight in 6 well plates at a density of 3×10^5 cells/ml in phenol red-free RPMI/10% FBS. The following day, media was replaced with serum-free RPMI for 30 min. In some experiments, anti-PRLR or non-specific control antibodies were incubated with cells during this serum starvation period. 50 ng/ml PRL was then added to wells for 30 min, after which cells were rinsed once in PBS and lysed in a buffer consisting of 50 mM Tris-HCl, pH7.5, 150 mM NaCl, 1 mM EDTA, 1% NP-40, 1 mM Na3OV4, 50 mM NaF, 0.25% deoxycholate and protease inhibitors. Tubes were spun down at 14,000 rpm in a refrigerated microfuge and lysates were quantitated using BCA reagents. 30 μg of whole cell lysate was separated by 10% SDS-PAGE and proteins were detected using phospho-specific antibodies for STAT5A/B (Y694/Y699, Upstate) or PRLR (Y546/Y611, in-house) and ECL. Equal protein loading was determined by staining with antibodies specific for total STAT5 (BD) or PRLR (Zymed) or AKT (Cell Signalling). Results of a representative assay of effect of a PRLR-specific antibody on PRLR intracellular phosphorylation are shown in FIG. 6.
Chimeric mAbs were analyzed for their ability to inhibit the proliferation and survival of BaF/PRLR cells [FIG. 11]. […] In order to assess the PRLR signal-neutralizing capability of the chimeric antibodies in a human breast cancer model, T47D cells were treated with 1 ug/ml mAb for 30 min prior to PRL stimulation. At the same time, additional cell samples were incubated with antibody alone to examine any potential agonism gained through chimerization of the antibody candidates.
Antibodies were assessed in target modulation and cell proliferation assays. FIG. 16 depicts the effect of 2 concentrations of chXHA.06.642 and HUMAN ENGINEERED™ antibodies he.06.642-1 and he.06.642-2, on PRL-induced Stat5 phosphorylation in T47D cells. […] Similar results were found for chXHA.06.275 variants.

[2] = Mus musculus, 120 h, co-administered anti-KLH control Ab 1 ug/ml, read-out: chemotherapeutic IC50 with KLH (1 ug/ml)
[3] = Mus musculus, 120 h, co-administered chXHA.06.275 1 ug/ml, read-out: chemotherapeutic IC50 with chXHA.06.275 (1 ug/ml)
[4] = Mus musculus, 120 h, co-administered chXHA.06.642 1 ug/ml, read-out: chemotherapeutic IC50 with chXHA.06.642 (1 ug/ml)

Row | Molecule | IC50 (BaF3/PRLR cells; [2]) [nM] | IC50 (BaF3/PRLR cells; [3]) [nM] | IC50 (BaF3/PRLR cells; [4]) [nM] | ka (cynomolgus PRLR ECD) | kd (cynomolgus PRLR ECD) | ka (human PRLR ECD) | kd (human PRLR ECD) | other results
1 | COc1cccc2c1C(=O)c1c(O)c3c(c(O)c1C2=O)C[C@@](O)(C(=O)CO)C[C@@H]3O[C@H]1C[C@H](N)[C@H](O)[C@H](C)O1 [Doxorubicin] | 6.44 | 2.56 | 2.14 | – | – | – | – | –
2 | CC(=O)O[C@H]1C(=O)[C@@]2(C)[C@H]([C@H](OC(=O)c3ccccc3)[C@]3(O)C[C@H](OC(=O)[C@H](O)[C@@H](NC(=O)c4ccccc4)c4ccccc4)C(C)=C1C3(C)C)[C@]1(OC(C)=O)CO[C@@H]1C[C@@H]2O [Taxol] | 4.14 | 2.45 | 2.07 | – | – | – | – | –
3 | Nc1nc(F)nc2c1ncn2[C@@H]1O[C@H](CO)[C@@H](O)[C@@H]1O [Fludarabine] | 105000 | 93800 | 40000 | – | – | – | – | –
4 | N.N.[Cl][Pt][Cl] [Cisplatin] | – | – | – | – | – | – | – | IC50 (BaF3/PRLR cells; co-administered anti-KLH control Ab 1 ug/ml, read-out: chemotherapeutic IC50 with KLH (1 ug/ml)): 166 nM; IC50 (BaF3/PRLR cells; co-administered chXHA.06.275 1 ug/ml, read-out: chemotherapeutic IC50 with chXHA.06.275 (1 ug/ml)): 46.8 nM; IC50 (BaF3/PRLR cells; co-administered chXHA.06.642 1 ug/ml, read-out: chemotherapeutic IC50 with chXHA.06.642 (1 ug/ml)): 27.6 nM
5 | B1 | – | – | – | 3.6E+05 | 5.7E−04 | 6.2E+05 | 3.1E−04 | –
6 | B2 | – | – | – | 3.9E+05 | 5.0E−04 | 6.4E+05 | 2.7E−04 | –
7 | B3 | – | – | – | 3.7E+05 | 6.9E−04 | 6.0E+05 | 3.7E−04 | –
8 | B4 | – | – | – | 1.2E+05 | 3.8E−03 | 1.7E+05 | 3.5E−04 | agonism: induction of PRLR signaling by antibody alone ([1]; T47D cells treated with mAb alone): neither antibody displayed any agonistic activity; block of PRL-induced signaling (phospho-PRLR, phospho-Stat5) ([1]; T47D cells, 1 or 10 ug/ml mAb, then PRL 50 ng/ml 30 min): complete p-Stat5 signal abrogation
